B1: H2-Kb / F4 (parent complex)
chain 1: QQQVRQSPQSLTVWEGETAILNCSYEDSTFNYFPWYQQFPGEGPALLISIRSVSDKKEDGRFTIFFNKREKKLSLHITDSQPGDSATYFCAAMSNYNVLYFGSGTKLTVEP
chain 2: ETAVFQTPNYHVTQVGNEVSFNCKQTLGHDTMYWYKQDSKKLLKIMFSYNNKQLIVNETVPRRFSPQSSDKAHLNLRIKSVEPEDSAVYLCASSARQNSPLYFAAGTRLTVT
chain 3: not shown
chain 4: IQKTPQIQVYSRHPPENGKPNILNCYVTQFHPPHIEIQMLKNGKKIPKVEMSDMSFSKDWSFYILAHTEFTPTETDTYACRVKHDSMAEPKTVYWDRDM
chain 5: SIINFEKL
B2: H2-Kb / Ed28 (parent complex)
chain 1: AQSVTQPDARVTVSEGASLQLRCKYSYFGTPYLFWYVQYPRQGLQLLLKYYPGDPVVQGVNGFEAEFSKSNSSFHLRKASVHWSDWAVYFCAVSPGSGGKLTLGAGTRLQVNL
chain 2: DSGVVQSPRHIIKEKGGRSVLTCIPISGHSNVVWYQQTLGKELKFLIQHYEKVERDKGFLPSRFSVQQFDDYHSEMNMSALELEDSAMYFCASSPRASDYTFGSGTRLLVI
chain 3: not shown
chain 4: B1 chain 4
chain 5: SIINFEKL
Further: test concentration or dose not given here.

One assay covers variants of B1. Nature of the assay: % of reporter cells activated (NFAT-GFP), raw.
With chain 5 I2L, the ratio to parent was 1.25.
On to chain 5 I2S, for which the ratio to parent was determined as 1.05.
On the same count and under the same terms, the same measure for chain 5 I2E: 0.807.
Still for that read-out and setting: then chain 5 I2G, with 1.45; and chain 5 I2K, with 0.0728; and chain 5 I2Q, with 0.181.
Take chain 5 E6C: the ratio to parent stood at 0.537.
Take chain 5 E6L: the ratio to parent came to 0.0121.
Still for that read-out and setting: then chain 5 E6T, with 0.0219; and chain 5 E6D, with 0.987.
The same measure, in the same setting: the same measure for chain 5 E6S: 0.0357; for chain 5 E6N: 0.0563.
As to chain 5 E6I, the ratio to parent came to 0.00942.
On the same count and under the same terms, then chain 5 E6K, with 0.118; and chain 5 E6Q, with 0.0246.
Same read-out and setting: the same measure for chain 5 S1P: 0.0438.
Same read-out and setting: then chain 5 S1C, with 0.0254.
For the variant chain 5 S1H, the ratio to parent worked out at 0.0509.
The same measure, in the same setting: then chain 5 S1N, with 0.0308; and chain 5 S1W, with 0.0183; and chain 5 S1T, with 0.0232.
The same measure, in the same setting: the same measure for chain 5 S1K: 0.0638; for chain 5 N4F: 0.0339; for chain 5 N4H: 0.0344.
For the variant chain 5 N4K, the ratio to parent is 0.0286.
As for chain 5 N4D, the ratio to parent worked out at 0.0277.
Still for that read-out and setting: then chain 5 N4S, with 0.0317.
Turning to chain 5 N4T, the ratio to parent was found to be 0.0402.
As for chain 5 K7A, the ratio to parent was 0.222.
Take chain 5 K7T: the ratio to parent turned out to be 0.628.
The same measure, in the same setting: the same measure for chain 5 K7L: 0.85; for chain 5 K7F: 0.726.
Still for that read-out and setting: then chain 5 K7S, with 0.261; and chain 5 K7M, with 0.651.
On the same count and under the same terms, then chain 5 K7G, with 0.234; and chain 5 K7I, with 0.771; and chain 5 K7R, with 1.23.
As for chain 5 K7D, the ratio to parent was 0.101.
On the same count and under the same terms, the same measure for chain 5 I3D: 0.0344; for chain 5 I3Y: 0.517; for chain 5 I3Q: 0.0638.
The same measure, in the same setting: then chain 5 I3T, with 0.204.
Same read-out and setting: then chain 5 I3W, with 0.358.
As to chain 5 I3G, the ratio to parent stood at 0.0625.
The same measure, in the same setting: the same measure for chain 5 I3F: 1; for chain 5 I3R: 0.0634.
As to chain 5 L8W, the ratio to parent came to 0.491.
chain 5 L8R: the ratio to parent was found to be 0.276.
The same measure, in the same setting: the same measure for chain 5 L8Q: 0.759; for chain 5 L8S: 0.515.
Consider chain 5 L8V, for which the ratio to parent amounted to 0.457.
On the same count and under the same terms, the same measure for chain 5 L8N: 0.47; for chain 5 L8Y: 0.898.
Still for that read-out and setting: the same measure for chain 5 L8M: 0.723; for chain 5 L8P: 0.48.
Same read-out and setting: then chain 5 L8A, with 0.395.
As for chain 5 F5N, the ratio to parent was found to be 0.225.
On to chain 5 F5W, for which the ratio to parent was found to be 0.083.
As for chain 5 F5Q, the ratio to parent worked out at 0.517.
The same measure, in the same setting: the same measure for chain 5 F5V: 1.38; for chain 5 F5A: 0.967; for chain 5 F5S: 0.767.
Consider chain 5 F5K, for which the ratio to parent was determined as 0.109.

The next assay covers variants of B2. The experiment in a line: % of reporter cells activated (NFAT-GFP), raw.
Consider chain 5 E6M, for which the ratio to parent amounted to 0.0743.
Same read-out and setting: then chain 5 N4W, with 0.00775; and chain 5 N4S, with 0.0271; and chain 5 N4G, with 0.00642.
Same read-out and setting: the same measure for chain 5 I2T: 1.34; for chain 5 S1M: 0.908.
Take chain 5 F5I: the ratio to parent came out at 0.388.
The same measure, in the same setting: the same measure for chain 5 F5S: 0.867; for chain 5 F5Q: 0.455; for chain 5 K7E: 0.013.
Same read-out and setting: the same measure for chain 5 L8Y: 0.902; for chain 5 L8N: 0.594.

The values above are taken from publication PMC11480844 (2024).
